Test results taken from patent US20220409725A1.

Target: HER2 (UniProt P04626)
Assay: SPR

- Kd: 750 pM
Substance: 4D5 Fab modified to contain Q39E in VH, Q38K in VL, S183K in the CH1, and V133E in the CL
